Assay results from PMC12384571.

Experiments:
[1] = target: Human FcRn (neonatal Fc receptor for IgG) (human) (UniProt P55899); assay: ITC; 15 uM FcRn in the sample cell, titrated with 100 uM mAb from the syringe (9 injections of 3 uL); 25 °C; 1 x PBS, pH 6.0; independent fit model
[2] = target: hGHbp ECD (Homo sapiens) (UniProt P10912); assay: SPR; conditions: cited from earlier work
Chain of UniProt P10912 (P10912 19-256): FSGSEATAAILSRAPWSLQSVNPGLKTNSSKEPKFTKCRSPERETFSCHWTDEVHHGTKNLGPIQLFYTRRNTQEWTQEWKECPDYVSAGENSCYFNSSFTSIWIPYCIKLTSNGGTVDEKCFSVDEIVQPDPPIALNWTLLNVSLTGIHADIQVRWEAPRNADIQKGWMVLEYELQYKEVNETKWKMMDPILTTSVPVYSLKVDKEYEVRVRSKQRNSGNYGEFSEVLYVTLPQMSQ

Chain of UniProt P55899 (P55899 whole entry, looked up, the tested form may be a part): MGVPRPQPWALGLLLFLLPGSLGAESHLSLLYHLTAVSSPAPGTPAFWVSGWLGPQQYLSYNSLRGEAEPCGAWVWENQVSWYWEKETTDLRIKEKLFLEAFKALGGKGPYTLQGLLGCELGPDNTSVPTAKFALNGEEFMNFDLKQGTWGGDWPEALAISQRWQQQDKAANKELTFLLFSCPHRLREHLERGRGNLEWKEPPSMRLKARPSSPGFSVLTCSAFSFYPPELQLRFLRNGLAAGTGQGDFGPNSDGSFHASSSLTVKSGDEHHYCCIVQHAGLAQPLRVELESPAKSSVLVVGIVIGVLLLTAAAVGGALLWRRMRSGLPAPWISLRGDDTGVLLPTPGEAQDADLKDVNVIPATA

| dH [1] | Substance | Kd [2] |
| --- | --- | --- |
| -12 kcal/mol | YTE mutant IgG mAb (IgGA-YTE) (antibody) | – |
| – | hGHwt (from UniProt P01241) | 1.2 nM |
| -5.5 kcal/mol | wildtype IgG mAb (IgGAwt) (antibody) | – |
